Source: patent publication US20240294635A1 (CHIA TAI TIANQING PHARMACEUTICAL GROUP, published 2024)
Residue numbers refer to the chain shown, from its start. Each block holds one binder with its values, some of them ahead of it.

How the values were obtained:
[1] = biological target: CD47 on HL60 cells (UniProt Q08722 19-323, limits assumed); test: cell-based or functional assay
[2] = biological target: T1, human CD47 protein, His Tag (ACRObiosystems, Cat. No. CD7-H5227) (human, UniProt Q08722 19-139); test: ELISA, plate coated with CD47-His
T1 construct: bought reagent; also called CD47-His; hCD47-His Tag; not shown: His tag

[3] = biological target: T1, human CD47 protein, His Tag …; test: Biacore SPR, 25 C, antibody captured on CM5 chip
[4] = biological target: T2, cynomolgus/rhesus macaque CD47 protein, His Tag (ACRObiosystems, Cat. No. CD7-C52H1) (cynomolgus monkey (cynomolgus/rhesus …, UniProt A0A2K5X523 19-141)); test: Biacore SPR, 25 C, antibody captured on CM5 chip
T2 construct: bought reagent; also called Cynomolgus monkey CD47 protein

[5] = biological target: T3, CD47 on the red cell surface (Homo sapiens (Human), UniProt Q08722 19-323); test: flow cytometry on fixed red cells, antibody 1 µg/mL
Description: (§1) Anticoagulated blood was collected and well mixed with an equal amount of normal saline. The mixture was centrifuged at 2000 rpm/min for 5 min, and the supernatant was removed. […] In the first two washings, the mixture was centrifuged at 2000 rpm/min for 5 min, and in the last washing, the mixture was centrifuged at 2000 rpm/min for 10 min, and the supernatant was removed.

[6] = biological target: T3, CD47 on the red cell surface; test: flow cytometry on fixed red cells, antibody 10 µg/mL
Description: as §1

[7] = biological target: T4, human CD47 protein on CHO-K1-CD47 cells (human, UniProt Q08722 19-323); test: cell binding, CHO-K1-CD47 cells, high content imaging
T4 construct: whole, on cells; also called CHO-K1 cells expressing human CD47 protein
Description: A cell binding assay of anti-CD47 antibodies (chimeric or humanized) was performed based on the binding to a CHO-K1 cell line stably expressing CD47. CHO-K1-CD47 cells (CHO-K1 cells expressing human CD47 protein) were added to each well of a 96-well plate (Eppendorf, Cat. No. C030730.119) at 1.2×10⁴ cells per well and incubated with anti-CD47 antibodies (20 μg/mL, 1:4 dilution in PBS) at room temperature for 1-2 h. […] The cells were incubated at room temperature for 30 min. The cells were washed three times with PBS buffer. A nuclear dye Hoechst (Sigma, Cat. No. B2261) was diluted with PBS buffer at a dilution ratio of 1:500 and then added to each well at 100 μL/well for staining for 10 min. The cells were washed 3 times with PBS and analyzed using a high content screening system (manufacturer: PerkinElmer; model: Operetta).

[8] = biological target: T1, human CD47 protein, His Tag …; test: ELISA, CD47-His coated, competition with Human-SIRPα-mFc
Description: The plate was let stand at 2-8° C. overnight. The wells were aspirated to remove the coating buffer and blocked with 100 μL/well of a blocking solution (PBS with 1% (w/v) bovine serum albumin (BSA, Sigma, Cat. No. B2064-100G)) by incubation at 37° C. for 1 h. The 96-well plate was washed with a washing buffer (PBS with 0.01% (w/v) Tween 20 (Sigma, Cat. No. P9416-100ML)). […] After the 96-well plate was washed with PBS washing buffer, anti-CD47 chimeric antibodies or anti-CD47 humanized antibodies (see Table 8 for chimeric antibodies, and see Table 9 for humanized antibodies) were added. 4-fold dilution was performed with PBS buffer from a starting concentration of 20 μg/mL, with 8 gradients obtained. The plate was incubated at room temperature for 1.5 h. […] After the 96-well plate was washed with PBS buffer, 100 μL/well of a substrate solution TMB (TIANGEN, Cat. No. PA107-01) was added, and the plate was incubated at room temperature for color development for 10 min. 100 μL/well of 1 M H₂SO₄ was added to stop the reaction. Colorimetric signals were generated and read at 450 nm using a multifunctional microplate reader (manufacturer: PerkinElmer; model: EnVision). Data were analyzed using GraphPad Prism5, and EC₅₀ was calculated.

[9] = biological target: T3, CD47 on the red cell surface; test: cell-based or functional assay

T2 sequence (A0A2K5X523 entry or part of it limits assumed): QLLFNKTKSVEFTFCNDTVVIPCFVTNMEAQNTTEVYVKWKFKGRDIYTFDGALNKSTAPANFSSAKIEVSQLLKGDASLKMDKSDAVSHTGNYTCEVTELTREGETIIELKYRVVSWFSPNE

rate of phagocytosis, antibody 1 µg/mL [1]: 71.5% | rate of phagocytosis, antibody 10 µg/mL [1]: 74.9% | EC50 [2]: 0.157 µg/mL | Kd [3]: 0.204 nM | Kd [4]: 3.07 nM | MFI [5]: 2510 MFI | MFI [6]: 11000 MFI | EC50 [7]: 0.499 µg/mL | IC50 [8]: 0.703 µg/mL
B1: hz14A9-2.3 (antibody, human IgG4 S228P, kappa, V domains shown)
VH: QVQLVQSGAEVKKPGASVKVSCKVSGFNIEDDYIEWVRQAPGQGLEWMGRIDPANDKTKYAQKFQGRVTMTGDTSTNTVYMELSSLRSEDTAVYYCARPGLRRYYSMDYWGQGTLVTVSS
VL: DIQMTQSPSSLSASVGDRVTITCKASENVVSYVSWYQQKPGKAPKLLIYGASNRYTGVPSRFIGSGSSTDFTLTISSLQPEDFATYYCGQSYSYPLTFGQGTKLEIKR
notes: humanized 14A9, full-length heavy and light chains

rate of phagocytosis, antibody 1 µg/mL [1]: 81.7% | rate of phagocytosis, antibody 10 µg/mL [1]: 81.7% | EC50 [2]: 0.339 µg/mL | Kd [3]: 8.55 nM | Kd [4]: 2 nM | MFI [5]: 5240 MFI | MFI [6]: 15000 MFI | EC50 [7]: 0.471 µg/mL | IC50 [8]: 0.621 µg/mL
B2: hz14A9-2.4 (antibody, human IgG4 S228P, kappa, V domains shown)
VH: B1 VH with A97T
VL: B1 VL
notes: as for B1

red cell agglutination, lowest concentration causing it [9]: 3.3 µg/mL | rate of phagocytosis, antibody 1 µg/mL [1]: 5.1% | rate of phagocytosis, antibody 10 µg/mL [1]: 17.8% | EC50 [2]: 0.16 µg/mL | Kd [3]: 9.31 nM | Kd [4]: 2.26 nM | MFI [5]: 913 MFI | MFI [6]: 4730 MFI | IC50 [8]: 2.94 µg/mL
B3: hz16E5-1.2 (antibody, human IgG4 S228P, kappa)
heavy: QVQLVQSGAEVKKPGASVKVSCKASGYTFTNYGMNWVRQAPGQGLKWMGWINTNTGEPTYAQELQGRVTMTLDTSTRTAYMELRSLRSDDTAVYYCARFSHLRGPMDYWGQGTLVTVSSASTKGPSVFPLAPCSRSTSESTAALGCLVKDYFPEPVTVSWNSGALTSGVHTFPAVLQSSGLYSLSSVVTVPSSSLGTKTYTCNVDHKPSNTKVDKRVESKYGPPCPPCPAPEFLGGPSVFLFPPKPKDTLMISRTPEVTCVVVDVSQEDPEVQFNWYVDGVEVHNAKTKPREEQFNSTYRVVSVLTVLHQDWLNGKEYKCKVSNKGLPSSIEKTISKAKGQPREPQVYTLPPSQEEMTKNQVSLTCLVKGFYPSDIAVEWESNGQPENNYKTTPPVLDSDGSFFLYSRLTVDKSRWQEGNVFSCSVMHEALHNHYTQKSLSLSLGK
light: DIQMTQSPSSLSASVGDRVTITCRSSQSLVHSNGYTYLHWYQQKPGKAPKLLIYKVSNRFSGVPSRFSGSGSGTDFTLTISSLQPEDFATYYCSQSTHVPPTFGQGTKLEIKRTVAAPSVFIFPPSDEQLKSGTASVVCLLNNFYPREAKVQWKVDNALQSGNSQESVTEQDSKDSTYSLSSTLTLSKADYEKHKVYACEVTHQGLSSPVTKSFNRGEC
notes: humanized 16E5, full-length heavy and light chains

red cell agglutination, lowest concentration causing it [9]: 3.3 µg/mL | rate of phagocytosis, antibody 1 µg/mL [1]: 3.02% | rate of phagocytosis, antibody 10 µg/mL [1]: 2.03% | EC50 [2]: 0.215 µg/mL | Kd [3]: 17.1 nM | Kd [4]: 3.1 nM | MFI [5]: 860 MFI | MFI [6]: 4200 MFI | IC50 [8]: 2.05 µg/mL
B4: hz16E5-3.2 (antibody, human IgG4 S228P, kappa)
heavy: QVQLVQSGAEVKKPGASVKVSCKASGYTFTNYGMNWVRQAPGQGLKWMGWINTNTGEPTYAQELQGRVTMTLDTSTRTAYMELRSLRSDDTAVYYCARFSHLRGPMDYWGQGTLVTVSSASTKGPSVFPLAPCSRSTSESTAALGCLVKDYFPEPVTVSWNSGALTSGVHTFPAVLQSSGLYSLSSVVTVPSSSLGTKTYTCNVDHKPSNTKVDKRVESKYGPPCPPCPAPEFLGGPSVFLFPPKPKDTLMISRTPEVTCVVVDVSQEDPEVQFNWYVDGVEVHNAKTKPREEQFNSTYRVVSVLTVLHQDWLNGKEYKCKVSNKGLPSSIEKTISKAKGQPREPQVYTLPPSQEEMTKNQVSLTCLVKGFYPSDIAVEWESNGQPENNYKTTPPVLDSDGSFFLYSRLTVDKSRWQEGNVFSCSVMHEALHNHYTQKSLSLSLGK
light: B3 light with I2A
notes: as for B3

red cell agglutination, lowest concentration causing it [9]: 3.3 µg/mL | rate of phagocytosis, antibody 1 µg/mL [1]: 14.8% | rate of phagocytosis, antibody 10 µg/mL [1]: 4.02% | EC50 [2]: 0.306 µg/mL | Kd [3]: 18.9 nM | Kd [4]: 4.77 nM | MFI [5]: 945 MFI | MFI [6]: 6460 MFI | EC50 [7]: 3.87 µg/mL
B5: hz16E5-1.1 (antibody, human IgG4 S228P, kappa)
heavy: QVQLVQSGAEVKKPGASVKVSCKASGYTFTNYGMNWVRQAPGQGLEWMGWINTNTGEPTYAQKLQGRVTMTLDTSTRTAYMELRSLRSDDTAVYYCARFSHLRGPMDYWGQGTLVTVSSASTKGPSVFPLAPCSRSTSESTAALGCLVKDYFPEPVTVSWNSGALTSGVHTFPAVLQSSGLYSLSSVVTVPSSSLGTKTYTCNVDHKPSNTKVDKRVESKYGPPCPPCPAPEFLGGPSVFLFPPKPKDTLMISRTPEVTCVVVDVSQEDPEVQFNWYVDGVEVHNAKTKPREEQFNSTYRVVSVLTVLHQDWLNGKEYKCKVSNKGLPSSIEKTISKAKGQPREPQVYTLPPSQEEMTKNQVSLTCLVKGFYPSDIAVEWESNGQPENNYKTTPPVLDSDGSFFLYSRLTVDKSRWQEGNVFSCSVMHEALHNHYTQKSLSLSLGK
light: B3 light
notes: as for B3

red cell agglutination, lowest concentration causing it [9]: 3.3 µg/mL | rate of phagocytosis, antibody 1 µg/mL [1]: 50.6% | rate of phagocytosis, antibody 10 µg/mL [1]: 58.7% | EC50 [2]: 0.127 µg/mL | Kd [3]: 1.53 nM | MFI [5]: 6700 MFI | MFI [6]: 41400 MFI | EC50 [7]: 1.12 µg/mL | IC50 [8]: 1.68 µg/mL
B6: hz3F10-3.1 (antibody, human IgG4 S228P, kappa, V domains shown)
VH: QVQLVQSGAEVKKPGSSVKVSCKASGYTFSRYWIEWVRQAPGQGLEWMGEFIPGSDTTNYAQKFQGRVTITADISTSTAYMELSSLRSEDTAVYYCARGGLRRMDYWGQGTLVTVSS
VL: DIQMTQSPSSLSASVGDRVTITCRASSSVSSTYLHWYQQKPGKAPKLLIYTTSTLASGVPSRFSGSGSGTSYTLTISSLQPEDFATYYCQQFSDSTWTFGQGTKLEIKR
notes: humanized 3F10, full-length heavy and light chains

rate of phagocytosis, antibody 1 µg/mL [1]: 49.3% | rate of phagocytosis, antibody 10 µg/mL [1]: 44.2% | EC50 [2]: 0.129 µg/mL | Kd [3]: 0.765 nM | Kd [4]: 1.15 nM | MFI [5]: 3440 MFI | MFI [6]: 55900 MFI | EC50 [7]: 1.49 µg/mL | IC50 [8]: 1.84 µg/mL
B7: hz3F10-6.2 (antibody, human IgG4 S228P, kappa, V domains shown)
VH: B6 VH with D73E, S77N
VL: B6 VL with L48W, D94E
notes: as for B6

rate of phagocytosis, antibody 1 µg/mL [1]: 47.2% | rate of phagocytosis, antibody 10 µg/mL [1]: 55.2% | EC50 [2]: 0.0809 µg/mL | Kd [3]: 0.836 nM | Kd [4]: 1.17 nM | MFI [5]: 8450 MFI | MFI [6]: 53200 MFI | EC50 [7]: 1.07 µg/mL | IC50 [8]: 1.61 µg/mL
B8: hz3F10-2.1 (antibody, human IgG4 S228P, kappa, V domains shown)
VH: B6 VH
VL: B6 VL with S71D, Y72F, D94E
notes: as for B6

rate of phagocytosis, antibody 1 µg/mL [1]: 47.1% | rate of phagocytosis, antibody 10 µg/mL [1]: 29.6% | EC50 [2]: 0.106 µg/mL | Kd [3]: 0.896 nM | Kd [4]: 1.4 nM | MFI [5]: 5130 MFI | MFI [6]: 53300 MFI | EC50 [7]: 1.26 µg/mL | IC50 [8]: 1.82 µg/mL
B9: hz3F10-5.2 (antibody, human IgG4 S228P, kappa, V domains shown)
VH: B6 VH with D73E, S77N
VL: B6 VL with L48W
notes: as for B6

rate of phagocytosis, antibody 1 µg/mL [1]: 47.6% | rate of phagocytosis, antibody 10 µg/mL [1]: 60.9% | EC50 [2]: 0.0563 µg/mL | Kd [3]: 0.592 nM | Kd [4]: 2.47 nM | MFI [5]: 7580 MFI | MFI [6]: 53000 MFI | EC50 [7]: 1.18 µg/mL | IC50 [8]: 1.77 µg/mL
B10: hz3F10-6.1 (antibody, human IgG4 S228P, kappa, V domains shown)
VH: B6 VH
VL: B6 VL with L48W, D94E
notes: as for B6

rate of phagocytosis, antibody 1 µg/mL [1]: 55.5% | rate of phagocytosis, antibody 10 µg/mL [1]: 38.9% | EC50 [2]: 0.125 µg/mL | Kd [3]: 0.904 nM | Kd [4]: 1.33 nM | MFI [5]: 6250 MFI | MFI [6]: 56700 MFI | EC50 [7]: 1.27 µg/mL | IC50 [8]: 1.69 µg/mL
B11: hz3F10-1.2 (antibody, human IgG4 S228P, kappa, V domains shown)
VH: B6 VH with D73E, S77N
VL: B6 VL with S71D, Y72F
notes: as for B6

rate of phagocytosis, antibody 1 µg/mL [1]: 41.2% | rate of phagocytosis, antibody 10 µg/mL [1]: 43.1% | EC50 [2]: 0.07 µg/mL | Kd [3]: 0.946 nM | Kd [4]: 1.31 nM | MFI [5]: 4450 MFI | MFI [6]: 50500 MFI | EC50 [7]: 0.876 µg/mL | IC50 [8]: 1.53 µg/mL
B12: hz3F10-1.1 (antibody, human IgG4 S228P, kappa, V domains shown)
VH: B6 VH
VL: B6 VL with S71D, Y72F
notes: as for B6

rate of phagocytosis, antibody 1 µg/mL [1]: 50.5% | rate of phagocytosis, antibody 10 µg/mL [1]: 58.5% | EC50 [2]: 0.0993 µg/mL | Kd [3]: 0.96 nM | Kd [4]: 1.3 nM | MFI [5]: 7400 MFI | MFI [6]: 50600 MFI | EC50 [7]: 1.48 µg/mL | IC50 [8]: 1.7 µg/mL
B13: hz3F10-5.1 (antibody, human IgG4 S228P, kappa, V domains shown)
VH: B6 VH
VL: B6 VL with L48W
notes: as for B6

rate of phagocytosis, antibody 1 µg/mL [1]: 44.2% | rate of phagocytosis, antibody 10 µg/mL [1]: 34.7% | EC50 [2]: 0.106 µg/mL | Kd [3]: 0.779 nM | Kd [4]: 1.14 nM | MFI [5]: 5610 MFI | MFI [6]: 56100 MFI | EC50 [7]: 1.12 µg/mL | IC50 [8]: 1.73 µg/mL
B14: hz3F10-2.2 (antibody, human IgG4 S228P, kappa, V domains shown)
VH: B6 VH with D73E, S77N
VL: B6 VL with S71D, Y72F, D94E
notes: as for B6
